Earlier results in publication PMC10999626.

Target: FcRn (Mus musculus) (UniProt Q61559)
Assay: BLI

FcRn (Mus musculus), sequence (Q61559 22-365): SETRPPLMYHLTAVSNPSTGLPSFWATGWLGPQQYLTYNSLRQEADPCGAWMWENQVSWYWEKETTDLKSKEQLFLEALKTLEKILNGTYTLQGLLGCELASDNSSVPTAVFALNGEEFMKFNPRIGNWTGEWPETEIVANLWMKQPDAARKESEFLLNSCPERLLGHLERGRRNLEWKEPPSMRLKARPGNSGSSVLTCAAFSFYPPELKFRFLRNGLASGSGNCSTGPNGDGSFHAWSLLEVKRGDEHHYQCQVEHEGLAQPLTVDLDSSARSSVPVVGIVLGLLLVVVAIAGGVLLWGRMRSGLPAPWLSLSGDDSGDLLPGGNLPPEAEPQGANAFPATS
human IgG4, sequence (P01861 whole entry): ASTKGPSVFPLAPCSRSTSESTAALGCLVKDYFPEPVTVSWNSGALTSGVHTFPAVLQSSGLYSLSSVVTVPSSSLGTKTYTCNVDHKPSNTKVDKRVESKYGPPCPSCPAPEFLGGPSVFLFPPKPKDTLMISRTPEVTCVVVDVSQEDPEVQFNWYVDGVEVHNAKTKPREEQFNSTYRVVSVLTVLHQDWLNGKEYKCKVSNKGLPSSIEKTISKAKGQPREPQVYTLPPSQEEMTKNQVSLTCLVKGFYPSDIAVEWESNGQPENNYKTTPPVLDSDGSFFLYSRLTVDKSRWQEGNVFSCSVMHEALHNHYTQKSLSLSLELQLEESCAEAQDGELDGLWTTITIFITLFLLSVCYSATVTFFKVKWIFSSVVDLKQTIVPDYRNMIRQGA

- Kd: 6 nM
Substance: human IgG4 (from UniProt P01861)
